Read-outs that look alike come from different tables or passages of the source.

In assay [1] the target is p300/CBP KIX (UniProt Q92793). The following applies: cited from earlier work.
For assay [2], the target named is T1, GST-KIX (aa 588-683, from mouse CBP) (mouse, UniProt P45481 588-683). Description: native gel or EMSA.
The target in assay [3] is T1, GST-KIX (aa 588-683, from mouse CBP). Nature of the assay: native gel or EMSA. The source holds these as a separate data set. (In general: Mobility shift assays separate free from complexed probe on a gel.)
The target of assay [4] is untagged KIX (aa 587-679, from mouse CBP) (mouse, UniProt P45481 587-679). Description: cross-linking.
Sequence of untagged KIX (aa 587-679, from mouse CBP) (P45481 587-679): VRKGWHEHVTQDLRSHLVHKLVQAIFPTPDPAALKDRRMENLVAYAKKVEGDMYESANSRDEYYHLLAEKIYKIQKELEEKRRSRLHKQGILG

T1 sequence (P45481 588-683): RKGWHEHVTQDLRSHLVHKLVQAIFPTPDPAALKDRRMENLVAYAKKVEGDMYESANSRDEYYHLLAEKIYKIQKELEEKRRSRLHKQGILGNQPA
Sequence of p300/CBP KIX (Q92793 587-666): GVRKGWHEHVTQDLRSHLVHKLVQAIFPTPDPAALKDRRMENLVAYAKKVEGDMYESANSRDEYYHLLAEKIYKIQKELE

With CREB (from UniProt P16220), the Kd – broadly, a measure of binding affinity in units of concentration – in assay [1] was 108000 nM.

B1: Gal4-HBZ-AD wt (Gal4-DBD aa 1-147 fused to the N-terminus of HBZ-AD aa 1-77) (domain or fragment)
chain: MAASGLFRCLPVSCPEDLLVEELVDGLLSLEEELKDKEEEEAVLDGLLSLEEESRGRLRRGPPGEKAPPRGETHRDR
B1 gave a dissociation constant Kd in assay [2] of 3 ± 0.5 nM.

B2: Gal4-HBZ-Mut-AD2 (domain or fragment)
chain: MAASGLFRCLPVSCPEDLLVEELVDGLLSLEEELKDKEEEEAVLDGAASLEEESRGRLRRGPPGEKAPPRGETHRDR
In assay [3], B2 displayed a dissociation constant Kd of 180 nM.

B3: Gal4-HBZ-Mut-AD1 (domain or fragment)
chain: MAASGLFRCLPVSCPEDLLVEELVDGAASLEEELKDKEEEEAVLDGLLSLEEESRGRLRRGPPGEKAPPRGETHRDR
B3 gave a Kd in assay [3] of 800 nM.

B4: HBZ-AD wt (aa 1-77, without the Gal4-DBD fusion) (domain or fragment)
chain: MAASGLFRCLPVSCPEDLLVEELVDGLLSLEEELKDKEEEEAVLDGLLSLEEESRGRLRRGPPGEKAPPRGETHRDR
Consider B4, for which, in assay [4], the stoichiometry N (in general, the number of molecules, sites or subunits per partner or assembly) was 1.
